According to a protein production outcome set (Wang et al. 2014):
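Note: failed if final PepcDB status was selected cloned or expressed and not failed if soluble or beyond.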

Experiment: label from the status in PepcDB records
For “MKNFLETIEDMILIINREGRLLYANTAVPKKLGYPHEELMSMHILTITSAGKMAEGEKILAELFAGKKESLPLSLEKKEGTSIPAKARIWQGKWHNEPCLFAIIKDLSKEERASSPPFLEPDEIHTGISGAAWCEKPDFASDISCELKDEEPSKPRVLIVDDQLFNLKLLESALKEDYIVMTADNGIEALELATGKSQPDIILLDIIMPVMDGYEVCIRLREMPETRDIPVIFLSALKNEKNEEYALQLGVVDYITKPFSLPIIKGRLRNHVEQKKYRDRQKENSYIDELTQIANRRKFNETVTIEWNRARRNGNSLSVLMIDVDCFKKYNDFYGHLEGDKCLYKIAQTLKSNVKRSSDLVARWGGEEFACVLTDTDRIGAMLVGERLRRAVVKLNIPSEISDVDRVVTASIGVATALPAVDNSLEELLHKADMALYKAKKTGRNCVCTP”, the protein production was “failed”. With “MKNHLITVLVCCLFFIGCKDDKANSNQYDPSQPVVFTDFSPKEGGMRTRLYIEGSNFGNDPTKIHITIGGEKTKTIGADGKKIYCMVPSKAFDGIINVRVDGPDGKPIAEHTFEEEFKYTPATIVGTLLRKVDEDNNSAFQEGSFDEGASIPSNDCMVFDPKYKDGDNRLLFSSNHSDGLHLIDLTERTVKRLFPRTGYSTMYSFTFSADGDTLLFTDDHGQDNTTRANIYYSLRRENFRRIRPYNYGRTAYSLVYMDDGTIFYTTWWEGKVYKMIRNGAIPNIDENAEVAFSLSQISAVGGSHTILFRHPSNKFMYMLSDNFGAVFRADYDPVAKTFGNPSIIAGNMNDKSFKEGTGGSARFNKPQFGVFVKNEKYGEGIGPDNDQYDFYFCDRENHCIWKLDPHGVASLAAGRSNENADGKIWGYVDGNPLHEARFNQPAGLAYDPDTDMFYIGDIDNKGIRYMTTE” the protein production was “failed”. With “MKNIIPQALLTMPILSTGLQAQEKQPTPNLVFIMADQYRGDAIGCIGKEPVKTPHLDKLASEGINFTNAISSYPVSSPARGMLMTGMYPIGSKVTGNCNSETAPYGVELSQNARCWSDVLKDQGYNMGYIGKWHLDAPYKPYVDTYNNRGKVAWNEWCPPERRHGFDHWIAYGTYDYHLKPMYWNTTAPRDSFYYVNQWGPEYEASKAIEYINGQKDQKQPFALVVSMNPPHTGYELVPDRYKEIYKDLDVEALCKGRPDIPAKGTEMGDYFRNNIRNYYACITGVDENVGRIIEALKQNNLFDNTIVVFTSDHGICMGAHENAGKDIFYEESMRIPMILSWPDQIKPRKSDPLMIAFADLYPTLLSMMGFSKEIPETVQTFDLSNEVLTGKNKKDLVQPYYFVKFDNHATGYRGLRTDRYTYAVHATDGKIDNVILFDRTNDPHEMNNIASQQLKLTHTFNRQLKTWLEKTNDPFAQYIKLKLEHHHHHH” the protein production was “not failed”. In the case of “MKNIVVIGAGNIGSAIAWMLAATGDYRITVADRSADQLANVPAHERVDTEIVDIADRPALEALLKGKFAVLSAAPFHLTAGIAEAAVAVGTHYLDLTEDVESTRKVKALAETAESALIPQCGLAPGFISIVAADLAARFDKLDSVRMRVGALPQYPSNALNYNLTWSTDGLINEYIEPCEAIVEGRLTAVPALEEREEFSLDGVTYEAFNTSGGLGTLCATLEGKVRTMNYRTIRYPGHVAIMKALLNDLNLRNRRDVLKDLFENALPGTMQDVVIVFVTVCGTRNGRFLQETYANKVYAGPVSGRMMSAIQITTAAGICTVLDLLAEGSLPQKGFVRQEEVALPKFLENRFGRYYGAHEPLARVG”, the protein production is reported as “failed”. For “MKNKIILGCLAAAACEILFGLSFIFTKSITAQASGLALISWRFVTAFFFVNLYLLTKRQKVVINGRNIKPLIRIAILNPIIYFICETIGIRMTTASESGAFLACIPVVALIMSSLILKEWPSRWQVVGVATTLIGIIIAVFAAGGSTNFSLVGYFILGLAVVSYALYCVDVEKASQFTSFEITYFMLASGCLTFGLFALSHSFLAGNLKELLTLPWSNPKFAITILYQGLGCSVIGYILSNFAIATIGVNRTASFIGISTIISILAAVVFLGEPFSQLQILAGILVVLGVYVANKN”, the protein production was “failed”. For “MKNKKNNYDLMYFIPLVFLIYPIGGILYYHYPFWTLFFTLAFVGAYLYSVIIRGESKYHMIAWSTMLTYIFYMTIFINSGFIWYIYFLSNLLVYRFRDKLKSFRFISFACTLATVVFLCFFKASDFGDRIMFLIVPIFCIGYMWIAIENRNSEEQREKIAEQNQYINILSAENERNRIGRDLHDSLGHTFAMMTLKTELALKLLEKRNYDKVQKELSELNHISHQSMSEVRQIVSNLKYRTVVEEIDELYRLFQLSNIKLTVVNKLETSQLSPVTQSTITMILKELSNNIVKHAEADSVELSLVRQGATINIEMIDNGCGFTNLDGDELHSIQERLTIVEGTLTILSRSKPTHIQVVLKEV”, the protein production was “failed”. With “MKNLHRCKKIFLRVFSRSARRQREPLQDAVLDLHQGAFGGFAPCSAPVQLKRKRPMTKPETTAPTAKAVLPIGLLIAVLAMVAVLLLPLPADLPVAGHRMLAILAFAVVVWISEAVSYEASAIMITALMAFLIGTAPTLQDPSQLYGSSAAIGLALTGFSNSALALVAGALFIAAAMTHTGLDRRIALVTLTRVGTSTRRILIGAIAVTILLSLLVPSATARSACVVPIMMGVIAAFGVDKRSNIAAGLMIVVAQGTSIWNVGIQTAAAQNLLTVGFMDKMLGQRVAWLDWLIAGAPWAVIMSLVLLWLVLKLLPPETDSIPGGKEAVAQSLADIGPMTGPQKRLLTVSVLLLLAWSTEGKLHPFDTTTTTYAGLVILLLPRIGIMTWKDVQSRIPWGTVIVFGVGISLGSALLSTQAGQWLGSQVVAHTGLDQVGPLAVFAILAAFLILIHLGFASATALTSALLPILIAVLQTLPGEFSRLGMTMLLGFVVSYGFILPINAPQNMVCLGTETFNARQFAKVGLLVTLIGYLLMLVFAMTWWKWLGWM” the protein production was “failed”. In the case of “MKNMVIVLTGVTVVAGALLGYVNELTKEPIAQANAKALSDAIAIVVPGFDNNPAEAPETIELEGVTYKIYKATKGGEFIGAAVESSANGFGGALNVLVGFDKEGNIIDYSLLSHAETPGLGSKAADWFKKGGKGDITGMNPGQKALVVNKDGGQIDAITASTITTRAFLKAVNNAYAAYSGQNVDGSSGATQQVSETAADDPKAAKAQCEGTQDCCGQACDSAACKAACGGKCDPANCDKADCKKAECPKQDCKNKK”, the protein production is reported as “failed”. With “MKNNKKGLWGIIVAVGLFLLSKLKWVFAIFKLAKFSTVFSMFLSLGAYAVLYGWKFGVALIYLLFVHEMGHLWAAKRKGIPTSPAIFIPFMGALIGMKEMPKNAKDEAYIAYMGPLFGLLSFLPAIPLYIMTKEPFWALVILLGSMINFFNLIPVSPLDGGRIISVVSTKIWGAGLILLLGYSIYFKSILGGFIVIIGCMELYRVIKRDEPIKELGHKIYGMKEYVTRLEEELKETGAVHRTIYVMHHEMNALRQREREKELQIGELKKMEVLEYLLPKFEPLDYVPYEDEKDEYTIHIREAFEASERKLNEWKTEKEQQENYYKVDAKTKWTVFACYIGLMVILGYTAYEGYIVLQEHLPTRNV” the protein production was “failed”. For “MKNPAEIDVADQQRLESMAVGGLIGFRTLLYKEVLRFWKVSFQTVAAPVLTAVLYLLIFGHVLEDRVRVYDQISYTAFLVPGLVMMSVLQNAFANSSSSLIQSKITGNLVFILLPPLSHWEMFGAYVVASIIRGLCVGLGVLLVTAWFANLHFAHIGWILVFGLMGAGILGTLGLIAGIWAEKFDQLAAFQNFLIMPATFLSGVFYSIHSLPAFWQAVSHANPFFYMIDGFRYGFFGVSDVPPLQSLAVVVVAFVVLAALALRLLRNGYKLRY”, the protein production was “failed”. For “MKNQFVKCISQLLFLLLIIGVLPVYAQKKSKEKIYRLPDDLETLAGDPALLKKPEGLTVAAYAFPNYHASALHNKIYSQGWTEYNLIRSARPWFEGHQQPRTPLLGELDESKPSTWETYNKLCKQSGIDVLIWDWYWYDGKPCLHEALENGFLEASNTKDVKFACMWTNHPWYVLYPTKRTDGSNAYPPSFDAPDFSKEECWKSLSYMISRYCHLENYWRIDDKPVICIWDARRLESKLGIAGVKQLFAELTDYAKKLGHKGLHFHVTGFSCGNMKEEGYDTVGSYNPMDWIAGRFQPKEIELPDYGTVAADVAFKLWDEHHGQFDIPYVPAVAPGWDSTPRYIAPANRPAKADRSQWPGCTIFKNENPASFKAFVQSSFVYLNKHPEVPRILTIACFNEWSEGHYLLPDNRFGYGMLDALGEALGKEGNHEKHGKLEHHHHHH”, the protein production was “not failed”. For “MKNQSPVPSYEGNVFMIDARDLSIAWSEDSNHWTWLPLPNQNSNTILSSESVMEIAFLKSASWLDVAGKFDTRYLTPRTRYEVVFVVKLEYTFEWETLVKLKLDLPNTWEKPQEQSVDMFDYISDQWLDIPVGEFTTSKKNVGEISFAMYEHECQLWKSGLFVKGVTIRPKY”, the protein production was “failed”. In the case of “MKPALVVVDMVNEFIHGRLATPEAMKTVGPARKVIETFRRSGLPVVYVNDSHYPDDPEIRIWGRHSMKGDDGSEVIDEIRPSAGDYVLEKHAYSGFYGTNLDMILRANGIDTVVLIGLDADICVRHTAADALYRNYRIIVVEDAVAARIDPNWKDYFTRVYGATVKRSDEIEGMLQEDQIET”, the protein production is reported as “not failed”. For “MKPIQLPLSVRLRDDATFANYYPGANAAALGYVERLCEAEAGWAESLIYLWGHDGVGRSHLLQAACLRFEQFEERTIYLPMADLVQYGPEIFDDLEQCELVCIDDLDVLVGKREWEEGLFHLFNRLRDTGRRLLLAASKSPRELQVKLPDLKSRLTMALIFQLHGLSDEDKLRALQLRASRRGLHLTDEVGRFILNRGSRSMNSLFDLLEQLDRASLQAQRKLTIPFLKETLGWLEHHHHHH”, the protein production was “not failed”. With “MKPLRKIRLGIVGCGIAARELHLPALKNLSHLFEITAVTSRTRSHAEEFAKMVGNPAVFDSYEELLESGLVDAVDLTLPVELNLPFIEKALRKGVHVICEKPISTDVETGKKVVELSEKSEKTVYIAENFRHVPAFWKAKELVESGAIGDPVFMNWQIWVGMDENNKYVHTDWRKKPKHVGGFLSDGGVHHAAAMRLILGEIEWISAVAKDLSPLLGGMDFLSSIFEFENGTVGNYTISYSLKGNERFEITGTKGKISISWDKIVLNEEEMKVPQENSYQKEFEDFYQVVAEGKPNDLGSPVQALKDLAFIEACVRSAGNKVFVSSLL” the protein production was “not failed”. For “MKPMEAAMGLIRFCLLFLALATPVNAAKLFLTTEVYPPYNLQASDGSVHGVYFDQLKIVLQDTDTDYEVAVMPWARAIALATTQAMHCVFATARTPEREKLFKWVAPIHTDRNILVARREANIEASSLEDARRYRVGTQRGDYTEALLEKLGFPQVDVGADFEITLNKLKLGRIDLMPMSESTLKSLPANSFKEVITLSRQQLGLACNKTVPDQIIAKLQARLDKLIADGTQQQIFDRYSLVSP”, the protein production was “failed”. With “MKPSLIYMYNINKKQIIISLLSFIFVVAVAFVSLGNYIKQESGEVRQTIIVAFVILVYITFLAMIVIQAVSAFGKMTESTLFRLTSISGKKIVLAILLYAVIYLLIFELIGSIFLYGISMKIIKGTELYEVLFTQSVFNPLKHLFSTMLYVFNLSSILLVLLFSVASVKVFSLKKKKLKYPMVFFLFLLVTKLLGTIYGMLGGLAPAAPLIKKLVYIDESSGADVFLYPEKLMNLYSLSFSIGIFILLVYITGRIIDKKLEV” the protein production was “failed”. In the case of “MKPTLFVLAAGMGSRYGSLKQLDGIGPGGDTIMDYSVYDAIRAGFGRLVFVIRHSFEKEFREKILTKYEGRIPVELVFQELDRLPEGFSCPEGREKPWGTNHAVLMGRDAIREPFAVINADDFYGRNGFEVLARKLMTLEGKQGEYCMVGYRVGNTLSESGGVSRGVCQVDEKHLLTGVVERTGIERTDGTISFRDETGKICTLAEDAPVSMNMWGFTPDYFDYSEELFINFLNAHGQEPKSEFFIPFVVNDLIRSGRASVEVLDTTARWFGVTYSDDRPGVVAKLRELTEAGEYPTKLF”, the protein production is reported as “not failed”. With “MKPTLFVLAAGMGSRYGSLKQLDGIGPGGDTIMDYSVYDAIRAGFGRLVFVIRHSFEKEFREKILTKYEGRIPVELVFQELDRLPEGFSCPEGREKPWGTNHAVLMGRDAIREPFAVINADDFYGRNGFEVLARKLMTLEGKQGEYCMVGYRVGNTLSESGGVSRGVCQVDEKHLLTGVVERTGIERTDGTISFRDETGKICTLAEDAPVSMNMWGFTPDYFDYSEELFINFLNAHGQEPKSEFFIPFVVNDLIRSGRASVEVLDTTARWFGVTYSDDRPGVVAKLRELTEAGEYPTKLFLEHHHHHH” the protein production was “not failed”.
